Measurements taken from patent publication US20210380960.

T1: Peptide 5: enriched with aromatic residues
T1 chain: YFLMNENRYTSWNSE

T2: Peptide 7 (random peptide)
T2 chain: GISEQFKTNVLREYA

T3: Peptide 4: enriched in glycines
T3 chain: GGGGNENRYTSWNSE

T4: Peptide 2: enriched in hydrophobic residues
T4 chain: LMLLNENRYTSWNSE

T5: Peptide 1: enriched in negatively charged residues
T5 chain: EEDEKRRKYTSWNSE

B1: PhTET3 (protein)
chain: MDLKGGESMVDWKLMQEIIEAPGVSGYEHLGIRDIVVDVLKEVADEVKVDKLGNVIAHFKGSSPRIMVAAHMDKIGVMVNHIDKDGYLHIVPIGGVLPETLVAQRIRFFTEKGERYGVVGVLPPHLRRGQEDKGSKIDWDQIVVDVGASSKEEAEEMGFRVGTVGEFAPNFTRLNEHRFATPYLDDRICLYAMIEAARQLGDHEADIYIVGSVQEEVGLRGARVASYAINPEVGIAMDVTFAKQPHDKGKIVPELGKGPVMDVGPNINPKLRAFADEVAKKYEIPLQVEPSPRPTGTDANVMQINKEGVATAVLSIPIRYMHSQVELADARDVDNTIKLAKALLEELKPMDFTP
B2: MjTET (protein)
chain: MSVVEYLKKLSKLHGISGREDSVREFMKKELEKYCDSVEIDNFGNLIAKRGNKGKKIMIAAHMDEIGLMVKYIDDNGFLKFTKIGGIYDPTILNQKVVVHGSKGDLIGVLGSKPPHRMKEEEKTKIIKYEDMFIDIGAESREEAIEMGVNIGTWVSFLSEVYDLGKNRLTGKAFDDRVGCAVLLEVMKRLSEEDIDCQVYAVGTVQEEVGLKGARVSAFKINPDVAIALDVTIAGDHPGIKKEDAPVDLGKGPVVGIVDASGRGLIAHPKVLDMIKAVSEKYKIDVQWEVGEGGTTDATAIHLTREGIPTGVISVPARYIHTPVEVIDKRDLEKTVELVYNCIKEVNNFF
B3: PhTET4 (protein)
chain: MERIVKILREILEIPSPTGYTKEVMSYLEKFLKENEVNFYYTNKGALIAGNHPKPELVVIAHVDTLGAMVKEILPDGHLAFSRIGGLVLPTFEGEYCTIITRKGKKFRGTLLLRNPSAHVNREVGKKERKEENMYIRLDELVEKREDTEKLGIRPGDFIAFDPKFEYVNGFVKSHFLDDKASVAAILDLIIDMKDELEKYPVAFFFSPYEEVGHGGSAGYPPTTKELLVVDMGVVGEGVSGKETAVSIAAKDTTGPYDYDMTNRLIELAEENNIPYVVDVFPYYGSDGSAALRAGWDFRVALIGPGVHASHGMERTHVKGLLATKELIRAYIKWKG
B4: PhTET2 (protein)
chain: MEVRNMVDYELLKKVVEAPGVSGYEFLGIRDVVIEEIKDYVDEVKVDKLGNVIAHKKGEGPKVMIAAHMDQIGLMVTHIEKNGFLRVAPIGGVDPKTLIAQRFKVWIDKGKFIYGVGASVPPHIQKPEDRKKAPDWDQIFIDIGAESKEEAEDMGVKIGTVITWDGRLERLGKHRFVSIAFDDRIAVYTILEVAKQLKDAKADVYFVATVQEEVGLRGARTSAFGIEPDYGFAIDVTIAADIPGTPEHKQVTHLGKGTAIKIMDRSVICHPTIVRWLEELAKKHEIPYQLEILLGGGTDAGAIHLTKAGVPTGALSVPARYIHSNTEVVDERDVDATVELMTKALENIHELKI
B5: PhTET1 (protein)
chain: MMSMIEKLKKFTQIPGISGYEERIREEIIREIKDFADYKVDAIGNLIVELGEGEERILFMAHMDEIGLLITGITDEGKLRFRKVGGIDDRLLYGRHVNVVTEKGILDGVIGATPPHLSLERDKSVIPWYDLVIDIGAESKEEALELVKPLDFAVFKKHFSVLNGKYVSTRGLDDRFGVVALIEAIKDLVDHELEGKVIFAFTVQEEVGLKGAKFLANHYYPQYAFAIDSFACCSPLTGDVKLGKGPVIRAVDNSAIYSRDLARKVWSIAEKNGIEIQIGVTGGGTDASAFQDRSKTLALSVPIKYLHSEVETLHLNDLEKLVKLIEALAFEL

Tests used:
[1] = biological target: T1, Peptide 5: enriched with aromatic …
[2] = biological target: T2, Peptide 7 (random peptide)
[3] = biological target: T3, Peptide 4: enriched in glycines
[4] = biological target: T4, Peptide 2: enriched in hydrophobic …
[5] = biological target: T5, Peptide 1: enriched in negatively …

Protein | hydrolysis of the peptide, RP-HPLC after 15 min at 40° C. [1] | hydrolysis of the peptide, RP-HPLC after 15 min at 60° C. [1] | hydrolysis of peptide 7 incorporated into a casein hydrolyzate, RP-HPLC [2] | kinetics of hydrolysis of the peptide, RP-HPLC after 5, 15 and 30 min [2] | further results
B1 | a significant decrease in hydrolysis is observed. In fact, in this case, only the peptide pep-1 is visible and in very small quantity | there is an accumulation of the peptide pep-1 while the intact substrate peptide is no longer present in the medium | the peptide of interest is not very hydrolyzed | – | hydrolysis of the peptide, RP-HPLC after 15 min (PhTET3 alone, 5% experiment) [1]: there is a strong accumulation of the peptide pep-1 after the 15 minutes of incubation of the aminopeptidase with the substrate peptide; hydrolysis of the peptide, RP-HPLC and mass spectrometry [1]: significant accumulation of peptides whose tyrosine at the N-terminal end has been hydrolyzed
B2 | all the intermediate peptides are visible as well as the final product pep-4, and there is only a significant slowdown in hydrolysis | part of the intact peptide is still present in the reaction medium, while the residues of the hydrolysis products are present in almost equivalent amounts. There is a slight accumulation of the final hydrolysis product, the peptide pep-4 | the peptide of interest is not very hydrolyzed | we observe, in addition to the peptide pep-1, the peptides pep-2 and pep-3, and what corresponds to pep-4 ... between 15 and 30 min, the concentration of the substrate peptide pep-0 does not seem to have decreased | –
B3 | – | – | only the peptide of interest is hydrolysed by the aminopeptidase PhTET4 and, this, almost completely | only the hydrolysis of the first glycine residue was observed | hydrolysis of the peptide, RP-HPLC after 15 min [3]: no hydrolysis activity is observed
B4 | – | – | – | – | hydrolysis of the peptide, RP-HPLC after 15 min [4]: the first residues of the peptide were hydrolyzed more quickly in the presence of PhTET3 than in the presence of PhTET2
B5 | – | – | – | – | hydrolysis of the peptide, RP-HPLC after 15 min [5]: no hydrolysis activity is observed
